Experimental data from PMC5905287, “Synthesis and in vitro biochemical evaluation of oxime bond-linked daunorubicin–GnRH-III conjugates developed for targeted drug delivery” (Beilstein Journal of Organic Chemistry, 2018).
Read-outs that look alike come from different tables or passages of the source. Non-standard residues stand in square brackets, D forms with d. Residues, ends and D or L forms follow the SMILES beside them. *: point of attachment. Daunorubicin(13-NOCH2CO) = COc1cccc2c1C(=O)c1c(O)c3c(c(O)c1C2=O)C[C@@](O)(C(C)=NOCC(=O)*)C[C@@H]3O[C@H]1C[C@H](N)[C@H](O)[C@H](C)O1; pGlu = O=C1CC[C@@H](C(=O)O)N1; Butyryl = CCCC(=O)*

What was measured:
GnRH-RI = target: T1, GnRH-RI (Homo sapiens, UniProt P30968); assay: Competitive inhibition of [125I][6D-Trp]-GnRH-I binding, human prostate cancer membranes; design: human prostate cancer cells were obtained from a patient at the time of initial surgical treatment; from tissue; host or cells: human prostate cancer specimen from a patient (surgery); membrane homogenate
T1 sequence (P30968 1-328): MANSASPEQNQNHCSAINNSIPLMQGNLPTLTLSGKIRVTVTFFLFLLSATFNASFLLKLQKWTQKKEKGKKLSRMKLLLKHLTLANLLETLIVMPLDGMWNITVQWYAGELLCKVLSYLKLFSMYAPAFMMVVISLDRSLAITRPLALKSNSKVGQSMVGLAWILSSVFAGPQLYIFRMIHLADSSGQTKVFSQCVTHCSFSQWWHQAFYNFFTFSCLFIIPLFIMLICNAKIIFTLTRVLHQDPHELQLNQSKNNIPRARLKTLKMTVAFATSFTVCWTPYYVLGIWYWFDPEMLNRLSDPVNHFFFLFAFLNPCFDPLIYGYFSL
Procedure: To investigate the binding affinity of the novel compounds to the GnRH-receptor, an in vitro ligand competition assay has been performed on human pituitary and GnRH-R positive human prostate cancer tissues. Hereby, the displacement of radiolabeled triptorelin by the unlabeled bioconjugates 1, 2, 4 and 5 was determined. For a better comparison, the bioconjugates K1 and K2 were also analyzed and used as reference. The obtained results summarized in Table 3 point out that all bioconjugates replaced [^125I]-triptorelin with IC50 values in low nanomolar range. […] (1.6 nM and 0.9 nM) and GnRH-II–[D-Lys^6(Dau=Aoa)] (4.2 nM and 2.1 nM).
Radiolabeled triptorelin was used for displacement studies to evaluate the binding affinity of the conjugates K1, K2, 1, 2, 4 and 5 to GnRH-RI on human pituitary and human prostate cancer cells. […] The binding affinities of the nonradio-labeled GnRH-III bioconjugates to GnRH-RI were determined by displacement of [^125I]-GnRH-I-[^6D-Trp] performing an in vitro ligand competition assay as recently reported. […] Supernatants were aspirated and the bottoms of the tubes containing the pellet were cut off and counted in a gamma counter. Protein concentration was determined by the method of Bradford using a Bio-Rad protein assay kit (Bio-Rad Laboratories, USA). […]

[1] = Degradation in rat liver lysosomal homogenate (LC-MS); assay type: in vitro ADME; details: for incubation time after which the smallest Dau-containing metabolite H-Lys(Dau=Aoa)-OH was detected: pH 5
Procedure: In order to gain insight into the cellular release of the drug, the degradation of the Dau–GnRH-III derivatives 1–6, K1 and K2 was determined in the presence of rat liver lysosomal homogenate at 37 °C. […] However, the degradation level and the cleavage sites within the GnRH-III sequence differ considerably depending on the incorporated amino acids, whereby the hydrolyses of the C-terminus (H-Gly-NH2 and H-Pro-Gly-NH2) occurred first in all eight GnRH-III derivatives. Due to the high chemical and enzymatic stability of the oxime bond, no free Dau was detected by LC–MS. In accordance with our previous results, the digestion of the two peptides containing L-Asp in position 6 (K1, K2) provided the smallest Dau-containing metabolite (H-Lys(Dau=Aoa)-OH, m/z 729.36 [M + H]^+). This metabolite could already be detected after 1 hour of incubation in case of K2 and after 2 hours in case of K1. […] It might be assumed that D-Trp of GnRH-III–[^4Lys(Bu), ^6D-Tpr, ^8Lys(Dau=Aoa)] (6) is also accepted at the cleavage site, but due to the prior hydrolysis of the ^7Trp-^8Lys(Dau=Aoa)-bond an evidential fragment has not been detected. A reason for these diversities might be the subsite specificities of the lysosomal proteases. For instance, lysosomal cysteine proteases also known as cathepsins show a broad substrate specificity. […] For instance, the analyzed fragments of the ^6L-Asp derivatives gave clear hints for the presence of endopeptidases, while the digestion of the ^6D-Aaa compounds 1–3 gave only fragments which evidence the activity of exomono- and/or dipeptidases. Moreover, the obtained results for the bioconjugates that contain ^4Lys(Bu) (K2, 4–6) instead of serine indicate a proteolytic cleavage by lysosomal endopeptidases, which might be of great importance for the release of the smallest Dau-containing metabolite.
The rat liver lysosomal homogenate was prepared as previously described. The protein concentration was determined by Qubit Protein Assay Kit according to the manufacturer’s protocol (ThermoFisher Scientific, Waltham, MA, USA). The bioconjugates were dissolved in ddH2O to a concentration of 5 µg/µL. The reaction was carried out in 0.2 M NaOAc buffer (pH 5), with an identical concentration of bioconjugate and rat liver lysosomal homogenate (0.25 µg/µL). The reaction mixtures were incubated at 37 °C and aliquots of 15 µL were taken at 5 min, 1 h, 2 h, 4 h, 8 h and 24 h and quenched with 2 µL of acetic acid. The analysis of the samples was performed by LC–MS.

Row | SMILES | IC50 (GnRH-RI; displacement of [125I]-triptorelin, human prostate cancer membranes, mean ± SE, read-out: IC50 prostate cancer) | incubation time after which the smallest Dau-containing metabolite H-Lys(Dau=Aoa)-OH was detected [1] | IC50 (GnRH-RI) | incubation time after which the smallest Dau-containing metabolite H-Lys(Dau=Aoa)-OH was detected ([1]; rat liver lysosomal homogenate, 37 °C) | release of the smallest Dau-containing metabolite H-Lys(Dau=Aoa)-OH ([1]; rat liver lysosomal homogenate, 37 °C, up to 24 h)
1 | COc1cccc2c1C(=O)c1c(O)c3c(c(O)c1C2=O)C[C@@](O)(C(C)=NOCC(=O)NCCCC[C@H](NC(=O)[C@H](Cc1c[nH]c2ccccc12)NC(=O)[C@@H](CCC(=O)O)NC(=O)[C@H](Cc1c[nH]cn1)NC(=O)[C@H](CO)NC(=O)[C@H](Cc1c[nH]c2ccccc12)NC(=O)[C@H](Cc1c[nH]cn1)NC(=O)[C@@H]1CCC(=O)N1)C(=O)N1CCC[C@H]1C(=O)NCC(N)=O)C[C@@H]3O[C@H]1C[C@H](N)[C@H](O)[C@H](C)O1 [compound 2, [6D-Glu, 8Lys(Dau=Aoa)]] ([pGlu]HWSH[dE]WK(Daunorubicin(13-NOCH2CO))PG-NH2) | 0.0104 ± 0.0013 µM | 24 h | – | – | –
2 | CCCC(=O)NCCCC[C@H](NC(=O)[C@H](Cc1c[nH]c2ccccc12)NC(=O)[C@H](Cc1c[nH]cn1)NC(=O)[C@@H]1CCC(=O)N1)C(=O)N[C@@H](Cc1c[nH]cn1)C(=O)N[C@H](CCC(=O)O)C(=O)N[C@@H](Cc1c[nH]c2ccccc12)C(=O)N[C@@H](CCCCNC(=O)CON=C(C)[C@]1(O)Cc2c(O)c3c(c(O)c2[C@@H](O[C@H]2C[C@H](N)[C@H](O)[C@H](C)O2)C1)C(=O)c1c(OC)cccc1C3=O)C(=O)N1CCC[C@H]1C(=O)NCC(N)=O [compound 5, [4Lys(Bu), 6D-Glu, 8Lys(Dau=Aoa)]] ([pGlu]HWK(Butyryl)H[dE]WK(Daunorubicin(13-NOCH2CO))PG-NH2) | – | – | 0.0116 ± 0.002 µM | 24 h | identified in small amount
